One molecule from patent US7122382 can be followed below.

This test deals with SV40 large T (SV40), P03070. As to the kind of experiment: biotinylated row protein on streptavidin beads, 35S column protein counted. The following applies: remark: other sources report otherwise.

B1: p53, P02340 1-390 (protein)
chain: MTAMEESQSDISLELPLSQETFSGLWKLLPPEDILPSPHCMDDLLLPQDVEEFFEGPSEALRVSGAPAAQDPVTETPGPVAPAPATPWPLSSFVPSQKTYQGNYGFHLGFLQSGTAKSVMCTYSPPLNKLFCQLAKTCPVQLWVSATPPAGSRVRAMAIYKKSQHMTEVVRRCPHHERCSDGDGLAPPQHLIRVEGNLYPEYLEDRQTFRHSVVVPYEPPEAGSEYTTIHYKYMCNSSCMGGMNRRPILTIITLEDSSGNLLGRDSFEVRVCACPGRDRRTEEENFRKKEVLCPELPPGSAKRALPTCTSASPPQKKKPLDGEYFTLKIRGRKRFEMFRELNEALELKDAHATEESGDSRAHSSYLKTKKGQSTSRHKKTMVKKVGPDSD
modifications: here or on the partner: 35S-methionine label or biotinylated lysine, by its role in the assay
Take B1: the RI (c.p.m.) was 884 c.p.m.
